According to the supplement of paper PMC10126150:
± gives the standard deviation of the averaged measurements.

system: ATP; assay: switch fluorescence ratio, 500 uM ATP over buffer (Cy3 cluster intensity, sum of 5 cycles each) (fold (ratio)); higher = stronger signal-on switching upon ATP binding; sequences stand for … in TCGTCGGCAGCGTCAGATGTGTATAAGAGACAGTTTTTTTTTTTTTTTTTTTTTTTTT…TC; conditions: aptamer strand: ATP DNA aptamer (quencher-CACCTGGGGGAGTATTGCGGAGGAAGG + anchor), 100 nM annealed; ATP concentration: 500 uM
How it was run: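 Per cluster, summed Cy3 intensity from the target cycles was divided by that from the buffer cycles to give the fluorescence ratio, then averaged per switch-domain sequence. Clusters outside 100-1000 RFU were excluded. The Cy3-labelled switching-strand clusters, on a modified Illumina MiSeq flow-cell, were annealed to 100 nM quencher-labelled ATP aptamer and imaged in selection buffer, then after 15 min with 500 uM ATP at 22 °C, for five cycles with NaOH stripping and re-annealing between them.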
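Note: ATP exposure 15 min at 22 °C before imaging.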

| Sequence | switch fluorescence ratio |
| --- | --- |
| TTTGGATGCG | 1.01 ± 0.077 |
| GGGTCAGTAG | 1.032 ± 0.0087 |
| GTTGAGTAGC | 1.02 ± 0.042 |
| TAAAAGGGAC | 1.01 ± 0.028 |
| TCTAAATGTT | 0.985 ± 0.03 |
| AATTAATTTT | 0.995 ± 0.038 |
| ATGCTACCTT | 1.1 ± 0.048 |
| TGGGTCTAGT | 0.9975 ± 0.0042 |
| CGGGGAATTG | 1 ± 0.014 |
| CAGGTTTAAG | 0.975 ± 0.055 |
| GTGGTTCCAA | 0.9932 ± 0.0063 |
| TAACGGGTTG | 1.03 ± 0.029 |
| GTCGGGGATA | 1 ± 0.049 |
| GAGGGTTTGA | 1.0098 ± 0.00022 |
| TTACAGGGGG | 1.03 ± 0.057 |
| GAGGGAGGAG | 1 ± 0.029 |
| AGAGGGGGGA | 1.02 ± 0.041 |
| CAATATGACT | 0.991 ± 0.092 |
| TGCCGGCGGG | 0.9629 ± 0.0043 |
| TGGGTGTGTT | 0.995 ± 0.028 |
| AAAAGGGGTC | 0.9959 ± 0.0053 |
| TCTTTATCCC | 1.18 ± 0.084 |
| TATTATTGGG | 1 ± 0.0054 |
| ATTAAAGGTT | 0.99 ± 0.022 |
| TATTTAGTCG | 0.975 ± 0.019 |

| Sequence | switch fluorescence ratio |
| --- | --- |
| GGGATGGTGG | 0.991 ± 0.024 |
| GTAATGTCTT | 0.9797 ± 0.0084 |
| GTGCTTACGA | 1.068 ± 0.01 |
| ACGGCCTGGG | 1.03 ± 0.03 |
| CGAATAGTTG | 1.005 ± 0.0085 |
| AAGAATGGCC | 0.954 ± 0.0032 |
| ACGGGCCTTG | 0.987 ± 0.0063 |
| GCTTGCCTAG | 0.962 ± 0.038 |
| AGGCATTGGC | 0.997 ± 0.048 |
| AGGGATTGC | 0.973 ± 0.027 |
| GATAATTGTC | 0.951 ± 0.048 |
| ATGATGGCTT | 1.006 ± 0.0027 |
| GTGTTGATTT | 0.9625 ± 0.0065 |
| TTTTTCCATT | 1.01 ± 0.027 |
| TGGGCAAGTT | 1.04 ± 0.044 |
| TCGTGAGGCT | 0.989 ± 0.036 |
| AAAATTATCT | 1.01 ± 0.021 |
| CGTTGGGTCT | 1 ± 0.018 |
| GTGTTTGAAA | 0.998 ± 0.027 |
| CCCTGGGGTA | 1.07 ± 0.056 |
| GATAAAGAAG | 0.9999 ± 0.0071 |
| GTCTTTTACG | 1.005 ± 0.0013 |
| AAAGGAGGTA | 1 ± 0.012 |
| TATTACTATT | 0.999 ± 0.023 |
| GGGTATTATT | 1.022 ± 0.0047 |

| Sequence | switch fluorescence ratio |
| --- | --- |
| TGGGCAACTC | 1.06 ± 0.021 |
| ATGGTGATAG | 0.992 ± 0.011 |
| TGGGTTCGGT | 0.995 ± 0.0032 |
| GCACCACCGT | 1.15 ± 0.014 |
| CGCGGAGTGA | 1.002 ± 0.01 |
| ACAATGTCTA | 0.962 ± 0.022 |
| CGGGCTTGGG | 0.968 ± 0.0031 |
| TTCCGGCACT | 1.09 ± 0.029 |
| CTCGGGTATG | 0.9791 ± 0.0043 |
| TGTGGGCAGT | 1.02 ± 0.03 |
| ATGGTTTTAG | 0.993 ± 0.033 |
| AAGGGTTAT | 0.995 ± 0.017 |
| GGGGCGTTTT | 0.998 ± 0.023 |
| TGGCCGGGAT | 0.996 ± 0.021 |
| TCGTAAAAA | 1.07 ± 0.13 |
| TGTTTAATTG | 0.97673 ± 0.0004 |
| TAGGGTATGA | 1.01 ± 0.02 |
| CGTAAGTGCA | 1 ± 0.024 |
| GTAGTTCGGG | 0.997 ± 0.036 |
| GAGAGGTTGT | 1 ± 0.024 |
| GGGAGCAGGG | 0.909 ± 0.058 |
| ATTTAAAACC | 1.06 ± 0.015 |
| GGCAGGGCTG | 0.974 ± 0.051 |
| TGGCACAGAG | 1 ± 0.022 |
| AATGGTCGTG | 0.998 ± 0.02 |

| Sequence | switch fluorescence ratio |
| --- | --- |
| GAATAGTCAG | 0.978 ± 0.033 |
| TAAATTTTAG | 1.007 ± 0.0026 |
| CGGGATGATC | 0.9966 ± 0.0069 |
| GTTTCGTGGG | 0.976 ± 0.031 |
| GCCCTGCAAT | 1.17 ± 0.056 |
| TGGGCCGGTT | 1.05 ± 0.099 |
| GAATGGGTGA | 0.983 ± 0.028 |
| GGTGTGATTG | 0.977 ± 0.04 |
| AATTTAAAAA | 0.986 ± 0.022 |
| GGGGTGAAGC | 1.02 ± 0.036 |
| ACATGTAGAG | 1 ± 0.0056 |
| ATCGAATATT | 0.983 ± 0.031 |
| GGCATGAGGT | 1 ± 0.016 |
| CGACTCGAAA | 1.02 ± 0.016 |
| CCAGCCGTCG | 1.07 ± 0.04 |
| GGGAGCCTAC | 1.038 ± 0.0081 |
| GGGAGAGGCT | 0.9764 ± 0.0016 |
| GGTGGCGCTA | 1.01 ± 0.02 |
| CAAGTTTTTG | 1.01 ± 0.033 |
| TTTCGTCGAA | 1.017 ± 0.01 |
| CAGAGGAACT | 0.999 ± 0.035 |
| CAATGGGAG | 0.988 ± 0.014 |
| TCTAAGTCGG | 0.987 ± 0.015 |
| TTCGGGATAG | 1.07 ± 0.1 |
| AAAAGTAATT | 0.985 ± 0.021 |
